Test results from patent US20120090043A1, “TARGETS FOR RETROVIRUS ASSOCIATED DISEASES” (priority 2009, published 2012).

Tested on: HTLV-1 LTR promoter transactivation by HTLV-1 Tax
Assay: Transactivation assay, HTLV-1 LTR luciferase reporter with HTLV-1 Tax
Type: cell-based
Settings: HEK293 cells co-transfected with pHTLV1LTR-Luc, HTLV-1 Tax and the human ORF; relative luciferase activity 24 h post-transfection; positive if >=2 or <=0.5 and p<0.05
Text: Twenty-four hours post-transfection, cells were washed three times with PBS, lysed and luciferase activities determined from two independent transfection experiments in triplicate. We computed a paired t-test to assess the difference of the means between samples with and without the human interactor. For a trial to be considered positive, the relative luciferase activities has to be >=2 or <=0.5, and the p-value of the t-test<0.05.
Expression vectors encoding human ORFs and HIV-1 Tat or HTLV-1 Tax proteins were tested in a transactivation reporter assay against reporter plasmids harboring HIV-1 or HTLV-1 viral promoter sequences cloned upstream of the luciferase reporter gene. […] Wherever not expressly specified, constructs used herein were generally made by sub-cloning entry clones from the ORFeome V3.1 into suitable destination vectors.

B1: MAD1L1: human host interactor protein, Gene ID 8379, expressed from transfected ORF vector (protein)
chain: MEDLGENTMVLSTLRSLNNFISQRVEGGSGLDISTSAPGSLQMQYQQSMQLEERAEQIRSKSHLIQVEREKMQMELSHKRARVELERAASTSARNYEREVDRNQELLTRIRQLQEREAGAEEKMQEQLERNRQCQQNLDAASKRLREKEDSLAQAGETINALKGRISELQWSVMDQEMRVKRLESEKQELQEQLDLQHKKCQEANQKIQELQASQEARADHEQQIKDLEQKLSLQEQDAAIVKNMKSELVRLPRLERELKQLREESAHLREMRETNGLLQEELEGLQRKLGRQEKMQETLVGLELENERLLAKLQSWERLDQTMGLSIRTPEDLSRFVVELQQRELALKDKNSAVTSSARGLEKARQQLQEELRQVSGQLLEERKKRETHEALARRLQKRVLLLTKERDGMRAILGSYDSELTPAEYSPQLTRRMREAEDMVQKVHSHSAEMEAQLSQALEELGGQKQRADMLEMELKMLKSQSSSAEQSFLFSREEADTLRLKVEELEGERSRLEEEKRMLEAQLERRALQGDYDQSRTKVLHMSLNPTSVARQRLREDHSQLQAECERLRGLLRAMERGGTVPADLEAAAASLPSSKEVAELKKQVESAELKNQRLKEVFQTKIQEFRKACYTLTGYQIDITTENQYRLTSLYAEHPGDCLIFKATSPSGSKMQLLETEFSHTVGELIEVHLRRQDSIPAFLSSLTLELFSRQTVA
  HTLV_LTR transactiv.: 0.20 fold change

B2: MYEF2: human host interactor protein, Gene ID 50804, expressed from transfected ORF vector (protein)
chain: MADANKAEVPGATGGDSPHLQPAEPPGEPRREPHPAEAEKQQPQHSSSSNGVKMENDESAKEEKSDLKEKSTGSKKANRFHPYSKDKNSGAGEKKGPNRNRVFISNIPYDMKWQAIKDLMREKVGEVTYVELFKDAEGKSRGCGVVEFKDEEFVKKALETMNKYDLSGRPLNIKEDPDGENARRALQRTGGSFPGGHVPDMGSGLMNLPPSILNNPNIPPEVISNLQAGRLGSTIFVANLDFKVGWKKLKEVFSIAGTVKRADIKEDKDGKSRGMGTVTFEQAIEAVQAISMFNGQFLFDRPMHVKMDDKSVPHEEYRSHDGKTPQLPRGLGGIGMGLGPGGQPISASQLNIGGVMGNLGPGGMGMDGPGFGGMNRIGGGIGFGGLEAMNSMGGFGGVGRMGELYRGAMTSSMERDFGRGDIGINQGFGDSFGRLGSAMIGGFAGRIGSSNMGPVGSGISGGMGSMNSVTGGMGMGLDRMSSSFDRMGPGIGAILERSIDMDRGFLSGPMGSGMRERIGSKGNQIFVRNLPFDLTWQKLKEKFSQCGHVMFAEIKMENGKSKGCGTVRFDSPESAEKACRIMNGIKISGREIDVRLDRNA
  HTLV_LTR transactiv.: 2.53 fold change

B3: TTC23: human host interactor protein, Gene ID 64927, expressed from transfected ORF vector (protein)
chain: MQESQETHISNHLDEVVAAVSITHRKKFQNKLLQTALFQPPREKLHLCEEKAKSYSNSHEYKQAVHELVRCVALTRICYGDSHWKLAEAHVNLAQGYLQLKGLSLQAKQHAEKARQILANSIVPPYSENTDVFKFSIELFHTMGRALLSLQKFKEAAENLTKAERLSKELLQCGRIIKEEWIEIEARIRLSFAQVYQGQKKSKEALSHYQAALEYVEISKGETSRECVPILRELAGVEQALGLHDVSINHFLQAHLIILSRSPSQVEAADSAHIVAHAAVASGRHEHHDVAEQYFQESMAHLKDSEGMGRTKFLSIQDEFCHFLQMTGQKERATSILRESLEAKVEAFGDFSPEVAETYRLLGGADLAQGNHSGARKKLKKCLQIQTLLYGPQDKRTLATQQAMGMLSTAPKVASKPRQASKAKVAFCTSIPQDTLLGKARPGTTAD
  HTLV_LTR transactiv.: 0.21 fold change

B4: SPG21: human host interactor protein, Gene ID 51324, expressed from transfected ORF vector (protein)
chain: MGEIKVSPDYNWFRGTVPLKKIIVDDDDSKIWSLYDAGPRSIRCPLIFLPPVSGTADVFFRQILALTGWGYRVIALQYPVYWDHLEFCDGFRKLLDHLQLDKVHLFGASLGGFLAQKFAEYTHKSPRVHSLILCNSFSDTSIFNQTWTANSFWLMPAFMLKKIVLGNFSSGPVDPMMADAIDFMVDRLESLGQSELASRLTLNCQNSYVEPHKIRDIPVTIMDVFDQSALSTEAKEEMYKLYPNARRAHLKTGGNFPYLCRSAEVNLYVQIHLLQFHGTKYAAIDPSMVSAEELEVQKGSLGISQEEQ
  HTLV_LTR transactiv.: 0.21 fold change

B5: NEFL: human host interactor protein, Gene ID 4747, expressed from transfected ORF vector (protein)
chain: MSSFSYEPYYSTSYKRRYVETPRVHISSVRSGYSTARSAYSSYSAPVSSSLSVRRSYSSSSGSLMPSLENLDLSQVAAISNDLKSIRTQEKAQLQDLNDRFASFIERVHELEQQNKVLEAELLVLRQKHSEPSRFRALYEQEIRDLRLAAEDATNEKQALQGEREGLEETLRNLQARYEEEVLSREDAEGRLMEARKGADEAALARAELEKRIDSLMDEISFLKKVHEEEIAELQAQIQYAQISVEMDVTKPDLSAALKDIRAQYEKLAAKNMQNAEEWFKSRFTVLTESAAKNTDAVRAAKDEVSESRRLLKAKTLEIEACRGMNEALEKQLQELEDKQNADISAMQDTINKLENELRTTKSEMARYLKEYQDLLNVKMALDIEIAAYRKLLEGEETRLSFTSVGSITSGYSQSSQVFGRSAYGGLQTSSYLMSTRSFPSYYTSHVQEEQIEVEETIEAAKAEEAKDEPPSEGEAEEEEKDKEEAEEEEAAEEEEAAKEESEEAKEEEEGGEGEEGEETKEAEEEEKKVEGAGEEQAAKKKD
  HTLV_LTR transactiv.: 0.45 fold change

B6: RNPS1: human host interactor protein, Gene ID 10921, expressed from transfected ORF vector (protein)
chain: MDLSGVKKKSLLGVKENNKKSSTRAPSPTKRKDRSDEKSKDRSKDKGATKESSEKDRGRDKTRKRRSASSGSSSTRSRSSSTSSSGSSTSTGSSSGSSSSSASSRSGSSSTSRSSSSSSSSGSPSPSRRRHDNRRRSRSKSKPPKRDEKERKRRSPSPKPTKVHIGRLTRNVTKDHIMEIFSTYGKIKMIDMPVERMHPHLSKGYAYVEFENPDEAEKALKHMDGGQIDGQEITATAVLAPWPRPPPRRFSPPRRMLPPPPMWRRSPPRMRRRSRSPRRRSPVRRRSRSPGRRRHRSRSSSNSSR
  HTLV_LTR transactiv.: 11.12 fold change

B7: NIF3L1: human host interactor protein, Gene ID 60491, expressed from transfected ORF vector (protein)
chain: MLSSCVRPVPTTVRFVDSLICNSSRSFMDLKALLSSLNDFASLSFAESWDNVGLLVEPSPPHTVNTLFLTNDLTEEVMEEVLQKKADLILSYHPPIFRPMKRITWNTWKERLVIRALENRVGIYSPHTAYDAAPQGVNNWLAKGLGACTSRPIHPSKAPNYPTEGNHRVEFNVNYTQDLDKVMSAVKGIDGVSVTSFSARTGNEEQTRINLNCTQKALMQVVDFLSRNKQLYQKTEILSLEKPLLLHTGMGRLCTLDESVSLATMIDRIKRHLKLSHIRLALGVGRTLESQVKVVALCAGSGSSVLQGVEADLYLTGEMSHHDTLDAASQGINVILCEHSNTERGFLSDLRDMLDSHLENKINIILSETDRDPLQVV
  HTLV_LTR transactiv.: 0.39 fold change

B8: LENG1: human host interactor protein, Gene ID 79165, expressed from transfected ORF vector (protein)
chain: MNILPKKSWHVRNKDNVARVRRDEAQAREEEKERERRVLLAQQEARTEFLRKKARHQNSLPELEAAEAGAPGSGPVDLFRELLEEGKGVIRGNKEYKEEKRQEKERQEKALGILTYLGQSAAEAQTQPPWYQLPPGRGGPPPGPAPDEKIKSRLDPLREMQKHLGKKRQHGGDEGSRSRKEKEGSEKQRPKEPPSLDQLRAERLRREAAERSRAEALLARVQGRALQEGQPEEDETDDRRRRYNSQFNPQLARRPRQQDPHLTH
  HTLV_LTR transactiv.: 0.34 fold change
